For one assay, the target named is T1, Human plasma fibronectin (human, UniProt P02751 32-2477, Alexa^488 label where used as FN^488).
T1 construct: Used coated on plastic at 10 nM, or soluble at 10 µg/ml, unlabeled or Alexa488-labeled; also called full-length fibronectin; FN
The experiment in a line: Alexa488-fibronectin added to cell-free wells coated with 400 nM mimetic; fluorescence after 20 h.

In assay [1] the target is T2, α5β1 integrin on mouse embryonic fibronectin-null fibroblasts (mouse, UniProt P11688 45-1053; P09055 21-798).
T2 construct: whole, on cells; Endogenous integrin on FN-null MEFs; also called α5β1 integrins; a5β1 integrin
Kind of assay: immunofluorescence of α5 integrin clustering in FN-null MEFs adherent for 4 h to coated substrate. As for the experimental part:
FIGS. 16A-16C show substrate-dependent ligation and clustering of α5β1 integrins. FN-null MEFs were seeded at a density of 2.5×10³ cells/cm² (FIG. 16A) or 3×10⁴ cells/cm² (FIG. 16B) onto tissue culture plates precoated with 400 nM of the various fibronectin matrix mimetics or 10 nM full-length fibronectin and allowed to adhere and spread for 4 h. In FIG. 16A, cells were processed for immunofluorescence microscopy and stained using antibodies against α5 integrin and vinculin. Images represent 1 of 3 experiments. Bar=10 μm. In FIG. 16B, cell surface proteins bound to the adhesive substrates were cross-linked using bis(sulfosuccinimidyl)suberate (BS³). Unbound proteins were extracted and […]. α5 integrins were analyzed by immunoblotting.
The preceding Examples therefore indicate that upon adhesion to GST/III1H,8-10, α5β1 integrins preferentially engage the adhesive substrate instead of soluble fibronectin, thus inhibiting the initiation of the matrix assembly process. To assess α5β1 integrin clustering in response to substrate adhesion, FN-null MEFs were allowed to adhere and spread for 4 h on plates pre-coated with saturating densities of matrix mimetics in the absence of soluble fibronectin. α5β1 integrins were visualized by immunofluorescence microscopy. […]

Assay [2] addresses T3, FITC-labeled type I collagen (rat, UniProt P02454 152-1207; P02466 86-1125, FITC label).
T3 construct: also called FITC-collagen I; collagen I
Kind of assay: FITC-collagen I added to cell-free, fibronectin-free wells coated with 400 nM mimetic; fluorescence after 20 h. The procedure: FIGS. 14A-14C show collagen I deposition by cells adherent to matrix mimetics. FN-null MEFs were seeded (3.0×10⁴ cells/cm²) on tissue culture plates pre-coated with matrix mimetics (400 nM). Four hours after seeding, cells were treated with fibronectin (10 μg/ml) and FITC-collagen I (10 μg/ml) for 20 h. In FIG. 14A, control wells received either FITC-collagen I only (+cell, −FN) or FITC collagen I in the absence of both cells and fibronectin (−cells, −FN). […] In FIG. 14B, cells were processed for immunofluorescence microscopy and stained using an antibody against fibronectin. Images represent 1 of 3 experiments. Bar=10 μm. Four hours after seeding, cells were treated with fibronectin (10 μg/ml) and FITC-collagen I ([…]) in the presence of either R1R2 (250 nM) or FNIII11C (250 nM).
The deposition of collagen I into the ECM is dependent on the co-assembly of a fibronectin matrix (Sottile et al., “Fibronectin Polymerization Regulates the Composition and Stability of Extracellular Matrix Fibrils and Cell-Matrix Adhesions,” Mol. Biol. Cell. 13(10):3546-3559 (2002), which is hereby incorporated by reference in its entirety). […] FITC-collagen I deposition was quantified 20 h after fibronectin and collagen addition.

T3 sequence (P02454 152-1207, chain 1 of 2): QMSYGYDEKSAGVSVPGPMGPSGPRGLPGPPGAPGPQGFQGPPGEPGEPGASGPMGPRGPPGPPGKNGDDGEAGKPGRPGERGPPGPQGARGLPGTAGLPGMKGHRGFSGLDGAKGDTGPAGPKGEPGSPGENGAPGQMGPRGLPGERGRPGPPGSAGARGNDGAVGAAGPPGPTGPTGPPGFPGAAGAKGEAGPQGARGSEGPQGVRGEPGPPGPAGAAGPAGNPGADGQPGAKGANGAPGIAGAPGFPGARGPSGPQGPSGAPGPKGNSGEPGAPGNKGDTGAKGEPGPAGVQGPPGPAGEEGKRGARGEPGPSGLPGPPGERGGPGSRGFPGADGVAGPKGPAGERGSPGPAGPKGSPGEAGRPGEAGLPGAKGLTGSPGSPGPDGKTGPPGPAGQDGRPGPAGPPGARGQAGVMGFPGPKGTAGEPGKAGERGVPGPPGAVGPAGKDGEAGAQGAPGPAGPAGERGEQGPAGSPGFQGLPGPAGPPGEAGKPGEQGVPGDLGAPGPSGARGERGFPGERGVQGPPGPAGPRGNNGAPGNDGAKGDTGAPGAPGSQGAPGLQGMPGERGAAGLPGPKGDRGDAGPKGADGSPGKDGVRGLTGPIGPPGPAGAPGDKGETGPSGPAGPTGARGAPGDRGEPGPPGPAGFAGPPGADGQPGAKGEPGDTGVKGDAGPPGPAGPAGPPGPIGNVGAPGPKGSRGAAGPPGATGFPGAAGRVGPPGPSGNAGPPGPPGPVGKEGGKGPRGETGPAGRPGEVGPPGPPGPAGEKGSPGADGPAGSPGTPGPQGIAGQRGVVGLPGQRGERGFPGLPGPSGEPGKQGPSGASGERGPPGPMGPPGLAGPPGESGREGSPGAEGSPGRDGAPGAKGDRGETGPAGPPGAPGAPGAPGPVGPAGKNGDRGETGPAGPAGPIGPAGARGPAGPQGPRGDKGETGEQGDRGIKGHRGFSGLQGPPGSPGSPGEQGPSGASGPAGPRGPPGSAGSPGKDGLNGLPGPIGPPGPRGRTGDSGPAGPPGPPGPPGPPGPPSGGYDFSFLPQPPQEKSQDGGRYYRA
T3 sequence (P02466 86-1125, chain 2 of 2): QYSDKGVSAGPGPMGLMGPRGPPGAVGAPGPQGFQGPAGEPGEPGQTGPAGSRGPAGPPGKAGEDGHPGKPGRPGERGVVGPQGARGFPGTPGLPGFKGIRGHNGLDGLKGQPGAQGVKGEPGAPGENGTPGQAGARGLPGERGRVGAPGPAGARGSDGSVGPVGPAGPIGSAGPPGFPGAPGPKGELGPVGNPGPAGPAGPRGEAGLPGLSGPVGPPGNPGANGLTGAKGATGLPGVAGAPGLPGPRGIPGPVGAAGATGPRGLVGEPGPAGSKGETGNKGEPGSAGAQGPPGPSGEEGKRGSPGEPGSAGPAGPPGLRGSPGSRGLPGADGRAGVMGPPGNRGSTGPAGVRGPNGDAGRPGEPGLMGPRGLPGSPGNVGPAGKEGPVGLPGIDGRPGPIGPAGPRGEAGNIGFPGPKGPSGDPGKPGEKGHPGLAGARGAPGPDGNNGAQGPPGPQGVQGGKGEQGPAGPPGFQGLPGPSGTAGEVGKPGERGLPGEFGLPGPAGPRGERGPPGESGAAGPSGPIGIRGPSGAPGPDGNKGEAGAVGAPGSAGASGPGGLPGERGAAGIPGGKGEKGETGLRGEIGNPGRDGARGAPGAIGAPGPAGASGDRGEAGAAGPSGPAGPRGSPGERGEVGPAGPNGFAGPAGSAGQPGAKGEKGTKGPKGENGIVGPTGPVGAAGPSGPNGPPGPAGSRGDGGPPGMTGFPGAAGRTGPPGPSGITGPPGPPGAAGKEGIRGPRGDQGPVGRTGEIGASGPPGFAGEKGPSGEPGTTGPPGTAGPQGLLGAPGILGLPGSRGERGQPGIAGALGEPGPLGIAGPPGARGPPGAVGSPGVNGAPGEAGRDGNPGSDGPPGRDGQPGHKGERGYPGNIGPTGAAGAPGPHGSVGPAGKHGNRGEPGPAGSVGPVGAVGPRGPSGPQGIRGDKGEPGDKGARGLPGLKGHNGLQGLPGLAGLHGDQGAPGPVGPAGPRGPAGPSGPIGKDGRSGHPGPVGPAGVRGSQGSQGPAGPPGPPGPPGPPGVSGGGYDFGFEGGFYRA
T1 sequence (P02751 other isoform, or with tags, fused parts or gaps): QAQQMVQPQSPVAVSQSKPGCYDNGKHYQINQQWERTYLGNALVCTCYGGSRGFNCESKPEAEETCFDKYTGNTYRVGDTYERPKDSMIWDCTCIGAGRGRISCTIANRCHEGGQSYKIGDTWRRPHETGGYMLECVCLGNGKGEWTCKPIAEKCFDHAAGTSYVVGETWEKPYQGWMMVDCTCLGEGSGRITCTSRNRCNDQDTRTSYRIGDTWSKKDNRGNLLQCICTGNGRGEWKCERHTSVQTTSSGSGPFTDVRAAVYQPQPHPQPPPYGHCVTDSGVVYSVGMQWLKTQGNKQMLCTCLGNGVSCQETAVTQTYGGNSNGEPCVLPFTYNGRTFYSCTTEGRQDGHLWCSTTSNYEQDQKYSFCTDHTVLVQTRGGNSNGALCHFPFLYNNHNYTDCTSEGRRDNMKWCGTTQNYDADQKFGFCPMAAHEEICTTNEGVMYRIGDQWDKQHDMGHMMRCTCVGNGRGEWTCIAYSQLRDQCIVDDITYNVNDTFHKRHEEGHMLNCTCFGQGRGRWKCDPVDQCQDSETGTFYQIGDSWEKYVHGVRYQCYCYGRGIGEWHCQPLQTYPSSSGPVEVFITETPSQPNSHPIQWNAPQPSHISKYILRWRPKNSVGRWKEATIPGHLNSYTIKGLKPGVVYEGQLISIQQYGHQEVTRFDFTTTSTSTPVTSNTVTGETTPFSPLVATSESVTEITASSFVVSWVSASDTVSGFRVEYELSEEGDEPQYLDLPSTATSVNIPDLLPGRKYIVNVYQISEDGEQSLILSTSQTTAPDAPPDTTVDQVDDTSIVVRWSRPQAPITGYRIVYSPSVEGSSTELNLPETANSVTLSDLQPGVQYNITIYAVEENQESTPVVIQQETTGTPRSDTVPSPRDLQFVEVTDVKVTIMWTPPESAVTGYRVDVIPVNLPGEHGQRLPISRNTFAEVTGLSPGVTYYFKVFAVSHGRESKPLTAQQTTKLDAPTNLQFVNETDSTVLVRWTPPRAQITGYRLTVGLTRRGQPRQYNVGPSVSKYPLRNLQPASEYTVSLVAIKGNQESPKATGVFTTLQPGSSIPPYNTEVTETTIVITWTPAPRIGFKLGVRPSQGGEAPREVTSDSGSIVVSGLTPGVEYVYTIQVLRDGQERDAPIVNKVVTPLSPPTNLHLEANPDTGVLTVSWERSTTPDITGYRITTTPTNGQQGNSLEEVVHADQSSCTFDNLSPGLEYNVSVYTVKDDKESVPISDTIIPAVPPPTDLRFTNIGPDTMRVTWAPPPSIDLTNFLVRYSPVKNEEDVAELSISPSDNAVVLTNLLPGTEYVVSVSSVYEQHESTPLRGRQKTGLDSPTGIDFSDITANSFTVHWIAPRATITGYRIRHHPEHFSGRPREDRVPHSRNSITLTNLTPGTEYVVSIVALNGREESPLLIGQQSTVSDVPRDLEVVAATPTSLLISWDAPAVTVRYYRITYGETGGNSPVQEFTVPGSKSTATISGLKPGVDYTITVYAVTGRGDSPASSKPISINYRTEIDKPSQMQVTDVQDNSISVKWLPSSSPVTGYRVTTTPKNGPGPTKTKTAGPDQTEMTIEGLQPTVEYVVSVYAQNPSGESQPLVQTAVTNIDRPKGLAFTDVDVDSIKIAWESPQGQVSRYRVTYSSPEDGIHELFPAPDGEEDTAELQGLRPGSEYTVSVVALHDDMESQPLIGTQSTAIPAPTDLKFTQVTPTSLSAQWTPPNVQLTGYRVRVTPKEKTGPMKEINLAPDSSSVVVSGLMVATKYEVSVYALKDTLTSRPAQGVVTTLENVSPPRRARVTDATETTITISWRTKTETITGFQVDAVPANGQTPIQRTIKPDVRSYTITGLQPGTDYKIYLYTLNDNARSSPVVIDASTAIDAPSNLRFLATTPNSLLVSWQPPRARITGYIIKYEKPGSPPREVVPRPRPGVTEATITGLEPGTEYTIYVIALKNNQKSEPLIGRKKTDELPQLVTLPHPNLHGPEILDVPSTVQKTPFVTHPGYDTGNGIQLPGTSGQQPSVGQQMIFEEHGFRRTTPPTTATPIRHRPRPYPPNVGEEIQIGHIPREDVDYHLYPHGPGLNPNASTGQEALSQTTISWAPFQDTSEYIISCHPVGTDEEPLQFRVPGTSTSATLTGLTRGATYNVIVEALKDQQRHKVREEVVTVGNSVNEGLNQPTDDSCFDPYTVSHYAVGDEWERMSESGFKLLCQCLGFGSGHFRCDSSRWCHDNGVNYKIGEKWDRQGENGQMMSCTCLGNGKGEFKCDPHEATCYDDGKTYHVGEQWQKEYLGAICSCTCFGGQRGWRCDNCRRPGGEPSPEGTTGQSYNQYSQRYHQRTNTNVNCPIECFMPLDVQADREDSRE

B1: GST/III1H,8^RGD (other)
chain: IQWNAPQPSHISKYILRWRPKNSVGRWKEATIPGHLNSYTIKGLKPGVVYEGQLISIQQYGHQEVTRFDFTTTSTSTAVPPPTDLRFTNIGPDTMRVTWAPPPSIDLTNFLVRYSPVKNEEDVAELSISPSDNAVVLTNLLPGTEYVVSVSSVYGRGDSPASSTPLRGRQKT
notes: Coated on tissue culture plastic in the assays; also called FNIII1H,8^RGD; not shown: glutathione S-transferase (GST) tag encoded by vector pGEX-2T (Amersham Biosciences)
For B1, the binding result in the assay with Human plasma fibronectin is “no binding (tested: 10 µg/ml)”; in assay [1] it was “no binding (tested: 400 nM coating)”; in assay [2], “no binding (tested: 10 µg/ml)”.

B2: GST/III1H,8,10 (other)
chain: IQWNAPQPSHISKYILRWRPKNSVGRWKEATIPGHLNSYTIKGLKPGVVYEGQLISIQQYGHQEVTRFDFTTTSTSTAVPPPTDLRFTNIGPDTMRVTWAPPPSIDLTNFLVRYSPVKNEEDVAELSISPSDNAVVLTNLLPGTEYVVSVSSVYEQHESTPLRGRQKTVSDVPRDLEVVAATPTSLLISWDAPAVTVRYYRITYGETGGNSPVQEFTVPGSKSTATISGLKPGVDYTITVYAVTGRGDSPASSKPISI
notes: Coated on tissue culture plastic in the assays; also called FNIII1H,8,10; not shown: glutathione S-transferase (GST) tag encoded by vector pGEX-2T (Amersham Biosciences)
Regarding B2, the binding result (with Human plasma fibronectin; in assay [2]) was “no binding (tested: 10 µg/ml)” in each case.

The values are drawn from US20150283214A1 (UNIVERSITY OF ROCHESTER, published 2015).
